Data reported in article PMC10779317, “Crosstalk between G-Quadruplexes and Dnmt3a-Mediated Methylation of the c-MYC Oncogene Promoter”.

What was measured:
[1] = biological target: M.SssI (UniProt P15840 1-386); test: fluorescence polarization; 100 uM AdoHcy; 20 mM HEPES-NaOH pH 7.5, 100 mM KCl, 1 mM EDTA, 1 mM DTT, 100 uM AdoHcy, 10 nM DNA (60 nM for PWWP); FP temperature not stated; methylation competition at 37 C; details: protein: recombinant; label: 5'-FAM; intramolecular parallel G4
[2] = biological target: Dnmt3a-CD (mouse (murine), UniProt O88508 630-908); test: as above; details: protein: recombinant, tags: N-terminal 6xHis, chain copies: 4
[3] = biological target: Dnmt3a PWWP domain (UniProt O88508 288-346); test: fluorescence polarization; 100 uM AdoHcy; 60 nM DNA; 20 mM HEPES-NaOH pH 7.5, 100 mM KCl, 1 mM EDTA, 1 mM DTT, 100 uM AdoHcy, 10 nM DNA (60 nM for PWWP); FP temperature not stated; methylation competition at 37 C; details: protein: recombinant; label: 5'-FAM; intramolecular parallel G4

M.SssI, sequence (P15840 whole entry): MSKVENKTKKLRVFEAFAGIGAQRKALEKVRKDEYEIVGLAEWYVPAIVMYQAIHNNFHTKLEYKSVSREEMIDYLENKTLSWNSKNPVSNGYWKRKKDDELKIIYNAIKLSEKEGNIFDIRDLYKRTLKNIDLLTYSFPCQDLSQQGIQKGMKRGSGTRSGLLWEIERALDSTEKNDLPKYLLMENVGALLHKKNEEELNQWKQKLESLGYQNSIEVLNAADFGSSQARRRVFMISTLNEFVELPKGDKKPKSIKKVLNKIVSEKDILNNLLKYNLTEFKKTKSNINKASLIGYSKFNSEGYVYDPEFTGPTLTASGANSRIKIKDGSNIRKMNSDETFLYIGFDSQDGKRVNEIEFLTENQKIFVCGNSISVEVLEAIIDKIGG

For TGGGGAGGGTGGGGAGGGTGGGGAAGG (structured_DNA) [27fG4], the Kd [1] was 1200 ± 600 nM, the Kd ([2]; label: 5'-FAM, intramolecular parallel G4) was 120 ± 30 nM and the Kd [3] was 900 ± 200 nM.

B1: 30Uf/30Df (dsDNA)
DNA 1: CTGAATACTACTTGCGCTCTCTAACCTGAT
DNA 2: ATCAGGTTAGAGAGCGCAAGTAGTATTCAG
Binder B1 has a Kd ([2]; label: 5'-FAM on both strands, blunt) of 220 ± 30 nM.
